Experimental data from US20230038638A1, “COMPLEMENT FACTOR I-RELATED COMPOSITIONS AND METHODS” (published 2023).

How the values were obtained:
[1] = target: soluble human C3b (human) (UniProt P01024)
human C4b (human) = target: T1, human C4b (human) (UniProt P0C0L5)
T1 sequence: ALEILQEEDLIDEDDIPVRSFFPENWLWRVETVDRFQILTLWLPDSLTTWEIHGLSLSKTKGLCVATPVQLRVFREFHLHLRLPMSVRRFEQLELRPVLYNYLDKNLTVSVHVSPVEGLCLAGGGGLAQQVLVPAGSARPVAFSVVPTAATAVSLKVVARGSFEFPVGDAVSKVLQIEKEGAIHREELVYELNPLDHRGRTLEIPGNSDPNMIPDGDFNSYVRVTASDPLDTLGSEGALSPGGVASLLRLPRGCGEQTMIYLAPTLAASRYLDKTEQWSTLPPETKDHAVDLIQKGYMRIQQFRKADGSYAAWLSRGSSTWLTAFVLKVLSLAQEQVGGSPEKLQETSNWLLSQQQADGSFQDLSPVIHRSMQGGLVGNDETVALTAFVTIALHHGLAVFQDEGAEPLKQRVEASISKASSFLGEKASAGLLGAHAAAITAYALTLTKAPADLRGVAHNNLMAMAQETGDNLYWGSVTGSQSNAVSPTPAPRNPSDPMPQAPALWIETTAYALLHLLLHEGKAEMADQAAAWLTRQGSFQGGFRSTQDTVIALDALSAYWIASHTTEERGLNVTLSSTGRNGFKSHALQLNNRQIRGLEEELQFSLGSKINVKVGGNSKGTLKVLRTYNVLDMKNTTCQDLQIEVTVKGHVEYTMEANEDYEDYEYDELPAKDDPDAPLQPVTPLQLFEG

Row | Substance | iC3b Screen Ref Fold (fold of CFI-HSA wild type) [1] | C4b Screen Ref Fold (fold of CFI-HSA wild type) (human C4b (human)) | further results
1 | CFI-HSA variant T495F; Y496L; D497E; S499G; I500K; G533A; K534Q; P535K; E536N; F537K (enzyme) |  |  | iC3b Screen Ref Fold (fold vs CFI-HSA wild type) [1]: 0.02; C4b Screen Ref Fold (fold vs CFI-HSA wild type) (human C4b (human)): -0.02
2 | CFI-HSA variant V323A (enzyme) |  |  | iC3b Screen Ref Fold (fold vs CFI-HSA wild type) [1]: 0.05; C4b Screen Ref Fold (fold vs CFI-HSA wild type) (human C4b (human)): 0.01
3 | CFI-HSA variant V565I (enzyme) | 1.25 | 1.11 | 
4 | CFI-HSA variant V565I; P558S (enzyme) | 0.85 | 1.41 | 
5 | CFI-HSA variant W381K (enzyme) |  |  | iC3b Screen Ref Fold (fold vs CFI-HSA wild type) [1]: 0.02; C4b Screen Ref Fold (fold vs CFI-HSA wild type) (human C4b (human)): 0
6 | CFI-HSA variant Y20F; D425R (enzyme) |  |  | iC3b Screen Ref Fold (fold vs CFI-HSA wild type) [1]: 1.01; C4b Screen Ref Fold (fold vs CFI-HSA wild type) (human C4b (human)): 0.42
7 | CFI-HSA variant Y20F; E38A; S250A; D425A (enzyme) |  |  | iC3b Screen Ref Fold (fold vs CFI-HSA wild type) [1]: 0.67; C4b Screen Ref Fold (fold vs CFI-HSA wild type) (human C4b (human)): 0.21
8 | CFI-HSA variant Y403F; D425K; E457G; E461Q; K504Y; N531G (enzyme) |  |  | iC3b Screen Ref Fold (fold relative to CFI-HSA wild type) [1]: 0.03; C4b Screen Ref Fold (fold relative to CFI-HSA wild type) (human C4b (human)): 3.11
9 | CFI-HSA variant Y403F; G406A; D425K; E457G; E461Q; K504Y; N531G (enzyme) |  |  | iC3b Screen Ref Fold (fold relative to CFI-HSA wild type) [1]: 0.02; C4b Screen Ref Fold (fold relative to CFI-HSA wild type) (human C4b (human)): 3.16
10 | CFI-HSA variant Y403F; G406A; D425K; E457G; E461Q; N531G (enzyme) |  |  | iC3b Screen Ref Fold (fold relative to CFI-HSA wild type) [1]: 0.14; C4b Screen Ref Fold (fold relative to CFI-HSA wild type) (human C4b (human)): 4.12
11 | CFI-HSA variant Y408A (enzyme) |  |  | iC3b Screen Ref Fold (fold vs CFI-HSA wild type) [1]: 0.71; C4b Screen Ref Fold (fold vs CFI-HSA wild type) (human C4b (human)): 0.09
12 | CFI-HSA variant Y408G (enzyme) |  |  | iC3b Screen Ref Fold (fold vs CFI-HSA wild type) [1]: 0.27; C4b Screen Ref Fold (fold vs CFI-HSA wild type) (human C4b (human)): 0.05
13 | CFI-HSA variant Y408L; D425K (enzyme) | 1.14 | 1.29 | 
14 | CFI-HSA variant Y408L; E457G; N531G; P535G; WT; GGSSGG (SEQ ID NO: 6); CR1(ccp15-17) (from UniProt P17927) (enzyme) | 0.05 | 3.14 | 
15 | CFI-HSA variant Y408L; E457G; N531G; WT; GGSSGG (SEQ ID NO: 6); CR1(ccp15-17) (from UniProt P17927) (enzyme) | 0.1 | 3.65 | 
16 | CFI-HSA variant Y408L; E457G; P535G; K534Q (enzyme) | 0.53 | 1.43 | 
17 | CFI-HSA variant Y408L; E457G; P535G; N422K (enzyme) | 1.39 | 1.07 | 
18 | CFI-HSA variant Y408L; E457G; P535G; P558S (enzyme) | 0.7 | 1.08 | 
19 | CFI-HSA variant Y408L; E457G; P535G; WT; GGSSGG (SEQ ID NO: 6); CR1(ccp15-17) (from UniProt P17927) (enzyme) | 0.23 | 1.99 | 
20 | CFI-HSA variant Y408L; E457G; WT; GGSSGG (SEQ ID NO: 6); CR1(ccp15-17) (from UniProt P17927) (enzyme) | 0.12 | 3.18 | 
21 | CFI-HSA variant Y408L; K534Q (enzyme) | 0.97 | 1.26 | 
22 | CFI-HSA variant Y408L; N422K (enzyme) | 1.27 | 0.6 | 
23 | CFI-HSA variant Y408L; N531G; E416A (enzyme) | 2.07 | 2.54 | 
24 | CFI-HSA variant Y408L; N531G; E457G; E461Q; R462K; F464Y; S507A (enzyme) |  |  | iC3b Screen Ref Fold (fold vs CFI-HSA wild type) [1]: 0; C4b Screen Ref Fold (fold vs CFI-HSA wild type) (human C4b (human)): 0.01

Row | Substance | iC3b Screen Ref Fold (fold of CFI-HSA wild type) [1] | C4b Screen Ref Fold (fold of CFI-HSA wild type) (human C4b (human)) | further results
25 | CFI-HSA variant Y408L; N531G; P535G (enzyme) | 0.97 | 0.89 | 
26 | CFI-HSA variant Y408L; N531G; P535G; K534Q (enzyme) | 1.2 | 1.47 | 
27 | CFI-HSA variant Y408L; N531G; P535G; P558S (enzyme) | 1.28 | 1.02 | 
28 | CFI-HSA variant Y408L; N531G; P535G; WT; GGSSGG (SEQ ID NO: 6); CR1(ccp15-17) (from UniProt P17927) (enzyme) | 0.05 | 3.6 | 
29 | CFI-HSA variant Y408L; N531G; WT; GGSSGG (SEQ ID NO: 6); CR1(ccp15-17) (from UniProt P17927) (enzyme) | 0.22 | 4.17 | 
30 | CFI-HSA variant Y408L; P535G; K534Q (enzyme) | 0.26 | 0.33 | 
31 | CFI-HSA variant Y408L; P535G; N422K (enzyme) | 1.03 | 0.17 | 
32 | CFI-HSA variant Y408L; P535G; P558S (enzyme) | 0.24 | 0.04 | 
33 | CFI-HSA variant Y408L; P535G; WT; GGSSGG (SEQ ID NO: 6); CR1(ccp15-17) (from UniProt P17927) (enzyme) | 0.03 | 3.01 | 
34 | CFI-HSA variant Y408L; P558S (enzyme) | 0.86 | 0.31 | 
35 | CFI-HSA variant Y408L; WT; GGSSGG (SEQ ID NO: 6); CR1(ccp15-17) (from UniProt P17927) (enzyme) | 0.03 | 3.64 | 
36 | CFI-HSA variant Y408R (enzyme) |  |  | iC3b Screen Ref Fold (fold vs CFI-HSA wild type) [1]: 0.24; C4b Screen Ref Fold (fold vs CFI-HSA wild type) (human C4b (human)): 0.07
37 | CFI-HSA variant Y553F (enzyme) | 0.67 | 1.37 | 
38 | CFI-HSA variant Y553F; F559L (enzyme) | 0.35 | 0.77 | 
39 | CFI-HSA variant Y553F; P558S (enzyme) | 0.84 | 1.26 | 
40 | CFI-HSA variant Y553F; P558S; F559L (enzyme) | 0.5 | 0.6 | 
41 | CFI-HSA variant Y553H; F559L (enzyme) | 0.32 | 1.16 | 
42 | CFI-HSA variant Y553H; F559L; P558S (enzyme) | 0.22 | 0.69 | 
43 | CFI-HSA variant Y553H; F559L; V565I (enzyme) | 0.76 | 1.23 | 
44 | CFI-HSA variant Y553H; F559L; V565I; P558S (enzyme) | 0.59 | 1.58 | 
45 | CFI-HSA variant Y553H; V565I (enzyme) | 1.32 | 1.97 | 
46 | CFI-HSA variant Y553H; V565I; P558S (enzyme) | 0.46 | 1.75 | 
47 | CFI-HSA variant Δ(K1-P305) (enzyme) |  |  | iC3b Screen Ref Fold (fold vs CFI-HSA wild type) [1]: 0.04; C4b Screen Ref Fold (fold vs CFI-HSA wild type) (human C4b (human)): 0.06
